This note sets out measurements from patent US20190016825A1 (JIANGSU HENGRUI MEDICINE, published 2019).

For assay [1], the target named is T1, PCSK9-BP15-His6 (human, UniProt Q8NBP7 31-692, biotin on the BP15 biotin receiving peptide).
T1 construct: It holds a signal peptide (underlined in print); also called WT PCSK9; bio-WT-PCSK9
The experiment in a line: blocking ELISA, LDLR-FC (SEQ ID NO: 8) coated, bio-WT-PCSK9 plus antibody. As for the experimental part: The blocking abilities of PCSK9 antibodies of the present invention to the binding of LDLR-FC (produced in-house, sequence is shown in SEQ ID NO: 8) to PCSK9 (SEQ ID NO: 5) were detected by measuring the amount of PCSK9 binding to LDLR in the presence of the antibodies.
LDLR-FC was diluted to 5 μg/ml with phosphate buffer and coated in the 96-well ELISA plate, then incubated at 4° C. overnight. The plate was washed and then blocked with Tris buffer (including 0.9 mM CaCl₂, 0.05% Tween 20 and 5% skim milk) at 37° C. for 2 hours. Then the plate was washed again and 100 μl/well of the mixture of biotin-labeled PCSK9 (bio-WT-PCSK9, diluted to the final concentration of 2 μg/ml with Tris buffer containing 0.9 mM CaCl₂, 0.05% Tween 20 and 1% skim milk) and antibody samples (diluted with Tris buffer containing 0.9 mM CaCl₂, 0.05% Tween 20 and 1% skim milk) were added and incubated at 37° C. for 1 hour. Then the plate was washed again and horseradish peroxidase-streptavidin (Sigma, CAT#52438) was added and incubated at 37° C. for 1 hour. Then the plate was washed and tetramethylbenzidine solution was added for development. Finally, the stop solution was added and the OD450 was measured on the Microplate reader, then IC50 was calculated.
A general note: In an ELISA, binding on a coated surface is turned into a signal by an enzyme label.

Assay [2] has as its target T2, PCSK9-D374Y-BP15-His6 (human, UniProt Q8NBP7 31-692, biotin on the BP15 biotin receiving peptide).
T2 construct: also called PCSK9-Y; mutant PCSK9
The experiment in a line: blocking ELISA, LDLR-FC (SEQ ID NO: 8) coated, bio-PCSK9-Y plus antibody. As for the experimental part:
The blocking abilities of anti-PCSK9 antibodies to the binding of LDLR-FC (SEQ ID NO: 8) to PCSK9-Y (mutant PCSK9, SEQ ID NO: 6) were detected by measuring the amount of PCSK9-Y binding to LDLR in the presence of the antibodies.
LDLR-FC was diluted to 2 μg/ml with phosphate buffer and coated in the 96-well ELISA plate (Costar, CAT#3590), then incubated at 4° C. overnight. The plate was washed and then blocked with Tris buffer (including 0.9 mM CaCl₂, 0.05% Tween 20 and 5% skim milk) at 37° C. for 2 hours. Then the plate was washed again and 100 μl/well of the mixture of biotin-labeled PCSK9-Y (bio-PCSK9-Y, diluted to final concentration of […] with Tris buffer containing 0.9 mM CaCl₂, 0.05% Tween 20 and 1% skim milk) and antibody samples (diluted with Tris buffer containing 0.9 mM CaCl₂, 0.05% Tween 20 and 1% skim milk) were added and incubated at 37° C. for 1 hour. Then the plate was washed again and horseradish peroxidase-streptavidin (sigma, CAT#S2438) was added and incubated at 37° C. for 1 hour. Then the plate was washed and tetramethylbenzidine solution was added for development. Finally, the stop solution was added and the OD450 value was measured on the Microplate reader, then IC50 was calculated.
The results of blocking test for the blocking effects of the chimeric antibodies and back-mutated antibodies of the present invention on the binding of LDLR-FC/PCSK9-Y are shown in table 7.

Assay [3] deals with T1, PCSK9-BP15-His6. The experiment in a line: ELISA, bio-WT-PCSK9 captured on streptavidin plate. As for the experimental part: The binding ability of anti-PCSK9 antibodies of the present invention to PCSK9 was detected by measuring the amount of antibodies binding to wild-type PCSK9 protein (WT PCSK9, SEQ ID NO: 5) fixed on the ELISA plate.
Streptavidin (sigma, CAT#S4762) was diluted to 2 μg/ml with PBS and coated into 96-well ELISA plate, at 4° C. overnight. The plate was washed and then blocked with Tris buffer (including 0.9 mM CaCl2, 0.05% Tween 20 and 5% skim milk) at 37° C. for 2 hours. Then the plate was washed again and 100 μl/well of the biotin-labeled PCSK9, produced in-house, (bio-WT-PCSK9, diluted with Tris buffer containing 0.9 mM CaCl2, 0.05% Tween 20 and 1% skim milk), was added and incubated at 37° C. for 1 hour. After the wash step, different concentrations of diluted PCSK9 antibody samples was added to the plate and incubated at 37° C. for 1 hour. Then the plate was washed again and HRP-goat-anti-human (H+L) antibody (Jackson ImmunoResearch, CAT#109-035-088) was added and incubated at 37° C. for 1 hour. Then the plate was washed again and tetramethylbenzidine solution was added for development. Finally, the stop solution was added and the OD450 value was measured on the Microplate reader, and then EC50 was calculated.

Assay [4] addresses T2, PCSK9-D374Y-BP15-His6. The experiment in a line: ELISA, bio-PCSK9-Y captured on streptavidin plate. Here is the method:
The binding ability of anti-PCSK9 antibodies of the present invention to PCSK9-Y was detected by measuring the amount of antibodies binding to PCSK9-Y (mutant PCSK9, SEQ ID NO: 6) fixed on the ELISA plate.
Streptavidin (sigma, CAT#54762) was diluted to 2 μg/ml with PBS and coated into 96-well ELISA plate at 4° C. overnight. The plate was washed and then blocked with Tris buffer (including 0.9 mM CaCl₂, 0.05% Tween 20 and 5% skim milk) at 37° C. for 2 hours. Then the plate was washed again and 100 μl/well of the biotin-labeled PCSK9-Y, produced in-house, (bio-PCSK9-Y, diluted with Tris buffer containing 0.9 mM CaCl₂, 0.05% Tween 20 and 1% skim milk) was added and incubated at 37° C. for 1 hour. After the wash step, different concentrations of diluted PCSK9 antibody samples were added to the plate and incubated at 37° C. for 1 hour. Then the plate was washed again and HRP-goat-anti-human (H+L) antibody (Jackson ImmunoResearch, CAT#109-035-088) was added and incubated at 37° C. for 1 hour. Then the plate was washed again and tetramethylbenzidine solution was added for development. Finally, the stop solution was added and the OD450 value was measured on the Microplate reader, and then EC50 was calculated.
The results of ELISA test for the binding ability of chimeric antibodies and back-mutated antibodies of the present invention to mutant PCSK9 are shown in table 6.

B1: h001-8 (antibody, human IgG1, V domains shown)
VH: QVQLVQSGAEVKKPGASVKVSCKASGYTFNDYWMHWVRQAPGQGLEWMGYINPSSGFTKYHQNFKDRVTMTRDTSISTAYMELSRLRSDDTAVYYCARQYDYDEDWYFDVWGQGTTVTVSS
VL: DIVMSQSPSSLSASVGDRVTITCKSSQSLLNSRTRKNFLAWYQQKPGKSPKLLIYWASTRESGVPDRFSGSGSGTDFTLTISSLQPEDFATYYCKQSFNLFTFGQGTKLEIK
notes: Variable regions only; also called h001_VH.1A + h001_VL.1C
One may read the IC50 as the point on the concentration scale where inhibition reaches its midpoint. For orientation: EC50 means the concentration at which the effect is half-maximal. The low end stands for an effect from little substance, the high end for a need for much substance. Turning to B1, the IC50 in assay [1] turned out to be 0.774 µg/mL; in assay [2] it was 0.414 µg/mL. In addition, the results for the EC50 in assay [3] and in assay [4] were 0.009 µg/mL and 0.0165 µg/mL, respectively.

B2: h001-9 (antibody, human IgG1, V domains shown)
VH: QVQLVQSGAEVKKPGASVKVSCKASGYTFTDYWMHWVRQAPGQGLEWMGYINPSSGFTKYHQNFKDRVTMTRDTSISTAYMELSRLTSDDTAVYYCARQYDYDEDWYFDVWGQGTTVTVSS
VL: DIQMTQSPSSLSASVGDRVTITCKSSQSLLNSRTRKNFLAWYQQKPGKAPKLLIYWASTRESGVPSRFSGSGSGTDFTLTISSLQPEDFATYYCKQSFNLFTFGQGTKLEIK
notes: Variable regions only; also called h001_VH.1B + h001_VL.1
For the molecule B2, the results for the IC50 in assay [1] and in assay [2] were 0.923 µg/mL and 0.52 µg/mL, respectively. Moreover, the EC50 in assay [3] is 0.0136 µg/mL; in assay [4], 0.0194 µg/mL.

B3: h001-10 (antibody, human IgG1, V domains shown)
VH: QVQLVQSGAEVKKPGASVKVSCKASGYTFTDYWMHWVRQAPGQGLEWMGYINPSSGFTKYHQNFKDRVTMTRDTSISTAYMELSRLTSDDTAVYYCARQYDYDEDWYFDVWGQGTTVTVSS
VL: DIQMTQSPSSLSASVGDRVTITCKSSQSLLNSRTRKNFLAWYQQKPGKAPKLLIYWASTRESGVPDRFSGSGSGTDFTLTISSLQPEDFATYYCKQSFNLFTFGQGTKLEIK
notes: Variable regions only; also called h001_VH.1B + h001_VL.1A
B3: the results for the IC50 in assay [1] and in assay [2] were 0.829 µg/mL and 0.514 µg/mL, respectively. The figures for the EC50 in assay [3] and in assay [4] were 0.0176 µg/mL and 0.0209 µg/mL, respectively.

B4: Ch-001 (antibody, V domains shown)
VH: QVHLQQSGAELAKPGASVKLSCKASGYTFNDYWMHWVKERPGQGLEWIGYINPSSGFTKYHQNFKDKATLTADKSSSTAYMQLSSLTYDDSAVYYCARQYDYDEDWYFDVWGTGTTVTVSS
VL: DIVMSQSPSSLAVSAGEKVTMSCKSSQSLLNSRTRKNFLAWYQQKPGQSPKLLIYWASTRESGVPDRFTGRGSGTDFTLTISSVQAEDLAVYYCKQSFNLFTFGSGTKLEIK
notes: also called chimeric antibody
In the case of B4, the results for the IC50 in assay [1] and in assay [2] were 0.836 µg/mL and 0.392 µg/mL, respectively. In addition, the EC50 was 0.0084 µg/mL in assay [3] and 0.0132 µg/mL in assay [4].
